# Patent US20050181479A1 (AstraZeneca / MedImmune, published 2005)
# Biological target: T1, human EphA2-Fc (human, UniProt P29317 25-534, limits assumed, biotinylated in the capture ELISA (sites not given))
# T1 construct: also called biotinylated human EphA2-Fc; human receptor tyrosine kinase EphA2; not shown: Fc portion; species, isotype and any linker are not described
# Assay: EphA2-specific capture ELISA: Fab from E. coli samples captured on anti-human Fab or anti-Fd, detected with biotinylated human EphA2-Fc
# Procedure: Capture ELISA: An EphA2-specific capture ELISA was carried out as follows: briefly, individual wells of a 96-well Maxisorp Immunoplate were coated with 20 or 2000 ng of a goat anti-human Fab antibody (Cappel, Calif.) or of a sheep anti-human Fd (BioDesign, ME), blocked with 3% BSA/PBS for 2 h at 37° C. and then incubated with 75 μl of the various samples (supernatants, periplasmic extracts and whole cell extracts of G5 Fab, 12G3 Fab, irrelevant Fab and variants thereof) for 2 hours at room temperature. 300 ng/well of biotinylated human EphA2-Fc was then added for 1.5 hours at room temperature. This was followed by incubation with a neutravidin-horseradish peroxidase (HRP) conjugate for 40 min at room temperature. HRP activity was detected with tetra methyl benzidine (TMB) substrate and the reaction quenched with 0.2 M H₂SO₄. Plates were read at 450 nm.
# T1 sequence (P29317 25-534 limits assumed): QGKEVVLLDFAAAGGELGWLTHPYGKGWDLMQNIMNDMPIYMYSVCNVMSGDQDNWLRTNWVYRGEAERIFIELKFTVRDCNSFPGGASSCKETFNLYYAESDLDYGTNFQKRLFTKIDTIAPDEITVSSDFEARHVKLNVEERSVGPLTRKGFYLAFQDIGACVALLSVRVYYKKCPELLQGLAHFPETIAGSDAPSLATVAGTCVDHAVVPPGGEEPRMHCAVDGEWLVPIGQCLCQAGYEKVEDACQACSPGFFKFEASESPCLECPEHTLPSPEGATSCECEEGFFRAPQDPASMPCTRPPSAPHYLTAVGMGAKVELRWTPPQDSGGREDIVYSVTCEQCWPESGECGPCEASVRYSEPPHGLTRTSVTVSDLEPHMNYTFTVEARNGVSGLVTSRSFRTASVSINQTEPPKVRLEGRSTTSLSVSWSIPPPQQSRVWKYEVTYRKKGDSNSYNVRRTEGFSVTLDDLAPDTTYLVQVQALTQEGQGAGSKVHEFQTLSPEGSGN
row,Binder,binding result
1,"G5 Fab (Fab, V domains shown, Fab expressed in E. coli TG1 from an M13-based phage vector and tested as unpurified supernatant, periplasmic extract or whole cell extract; They are kept as one molecule, since the leader is not part of the mature Fab; also called mAb G5; anti-EphA2 Fab) VH: QMQLVQSGPEVKKPGTSVKVSCKASGFTFTDYSMNWVRQARGQRLEWIGFIRNKANDYTTEYSASVKGRVTITRDMSTSTAYMELSSLRSEDTAVYYCARYPRYHAMDSWGQGTSVTVSS VL: DIQMTQSPSSLSASVGDRVTITCRASQSISNNLHWYQQKPGKAPKLLIKYVFQSISGVPSRFSGSGSGTDFTFTISSLQPEDFATYYCQQSNSWPLTFGGGTKVEIK",binds
2,"12G3 Fab (Fab, V domains shown, Fab expressed in E. coli TG1 from an M13-based phage vector and tested as unpurified supernatant, periplasmic extract or whole cell extract; They are kept as one molecule, since the leader is not part of the mature Fab; also called mAb12G3; anti-EphA2 Fab) VH: QMQLVQSGPEVKKPGTSVKVSCKASGFTFDDYSMNWVRQARGQRLEWIGFIRNKANDYTTEYSASVKGRVTITRDMSTSTAYMELSSLRSEDTAVYYCARYPRHHAMDSWGQGTSVTVSS VL: DIQMTQSPSSLSASVGDRVTITCRASQSISNNLHWYQQKPGKAPKLLIKYAFQSISGVPSRFSGSGSGTDFTFTISSLQPEDFATYYCQQANSWPLTFGGGTKVEIK",binds
